In the nanobody polyreactivity screen of Harvey et al. (2022):

Assay: yeast display, Sf9 membrane polyspecificity reagent, FACS + sequencing; frameworks hold sequencing errors
Method in brief: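 Nanobodies came from a synthetic yeast display library in Saccharomyces cerevisiae BJ5465, induced with galactose for 36–48 hours and stained for 1 hour at 4 °C with 10% biotinylated, detergent-solubilized Sf9 membrane reagent. Cells were enriched on streptavidin microbeads and then FACS-sorted, with low and high (top ~1%) gates set on anti-HA fluorescence for expression and streptavidin fluorescence for reagent binding. Each polyreactivity label reflects the gate a clone came from. Genes were amplified by colony PCR, sequenced by MiSeq 2 × 250 and filtered by CDR length.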

| Sequence | polyreactivity (PSR sort gate) |
| --- | --- |
| QVQLVESGGGLVQAGGSLRLSCAASGSTFYSNAMGWYRQAPGKERELVAGISGSGGSTYYADSVKGRFTISRDNAKNTVYLQMNSLKPEDTAVYYCNARKTRSYFRFDSWGQGTQVTVSS | low polyreactivity |
| QVQLVESGGGLVQAGGSLRLSCAASGSTFYSNVMGWYRQAPGKERELVAAISRSGGSTYYADSVKGRFTISRDNAKNTVYLQMNSLKPEDTAVYYCAAEREVGDAYDYWGQGTQVTVSS | high polyreactivity |
| QVQLVESGGGLVQAGGSLRLSCAASGSTFYSYAMGWYRQAPGKDRELVAAISSSSGTTYYADSVKGRFSISRDNAKTTVYLQMNSLKPEDTAVYYCNRGRRYSHKYDYWGQGTQVTVSS | high polyreactivity |
| QVQLVESGGGLVQAGGSLRLSCAASGSTFYSYAMGWYRQAPGKEREFVAAIRYSGGRTYADSVKGRFTISRDNAKNTVYLQMNSLKPEDTAVYYCAAVYYSYRWPYDYWGQGTQVTVSS | high polyreactivity |
| QVQLVESGGGLVQAGGSLRLSCAASGSTFYSYAMGWYRQAPGKERELVAAITSGGSTNYADSVKGRFTISRDNAKNTVYLQMNSLKPEDTAVYYCARKYWHRSYGYDYWGQGTQVTVSS | low polyreactivity |
| QVQLVESGGGLVQAGGSLRLSCAASGSTFYSYAMGWYRQAPGTERELVAAITSRGDRTYYADSVKGRFTISRDNAKNTVYLQMNSLKPEDTAVYYCAAEQSWQGYAYYYWGQGTQVTVSS | high polyreactivity |
| QVQLVESGGGLVQAGGSLRLSCAASGSTFYSYVMGWYRQAPGKERELVAAITYSGGRTYYADSVKGRFTISRDNAKNTVYLQMNSLKPEDTAVYYCAKRVFNYQRYDYWGQGTQVTVSS | high polyreactivity |
| QVQLVESGGGLVQAGGSLRLSCAASGSTFYTNAMGWYRQAPGKEREFVAAISWSGSSTYADSVKGRFTISRDNAKNTVYLQMNSLKPEDTAVYYCAADWFKLRTDYYWGQGTQVTVSS | low polyreactivity |
| QVQLVESGGGLVQAGGSLRLSCAASGSTFYTNAMGWYRQAPGKERELVAAISASVGSTYYADSVKGRFTISRDNAKNTVYLQMNSLKPEDTAVYYCAADRGFYYEYDYWGQGTQVTVSS | low polyreactivity |
| QVQLVESGGGLVQAGGSLRLSCAASGSTFYTNAMGWYRQAPGKERELVAAISASVGSTYYADSVKGRFTISRDNAKNTVYLQMNSLKPEDTAVYYCAAQYTYLLFASLPDYDYWGQGTQVTVSS | low polyreactivity |
| QVQLVESGGGLVQAGGSLRLSCAASGSTFYTNAMGWYRQAPGKERELVAAISGSGGSTNYADSVKGRFTISRDNAKNTVYLQMISLKPEDTAVYYGAADGSNYSGSVAAFPYRVDYWGQGTQVNVSS | low polyreactivity |
| QVQLVESGGGLVQAGGSLRLSCAASGSTFYTNAMGWYRQAPGKERELVAAISGSGGSTYYADSVKGRFTISRDNAMNTVYLQMNSLKPEDTAVYYCADRSRYYDTRFDYWGQGTQVTVSS | low polyreactivity |
| QVQLVESGGGLVQAGGSLRLSCAASGSTFYTNAMGWYRQAPGKERELVAAISNAGSTYYADSVKGRFTISRDNAKNTVYLQMNSLKPEDTAVYYCAADPIGLSSLWFRYSVSDVDYWGQGTQVTVSS | low polyreactivity |
| QVQLVESGGGLVQAGGSLRLSCAASGSTFYTYAMGWYRQAPGKERELVAAIRGRGGRTYYADSVKGRFTISRDNAKNTVYLQMNSLKPEDTSVYYCNADGYAYYRATTRFDYWGQGTQVTVSS | high polyreactivity |
| QVQLVESGGGLVQAGGSLRLSCAASGSTFYTYAMGWYRQAPGKERELVAAISADGGRTYYADSVKGRFTISRDNAKNTVYLQMNSLKPEDTAVYYCAAEERRWSSYRYYYWGQGTQVTVSS | high polyreactivity |
| QVQLVESGGGLVQAGGSLRLSCAASGSTFYTYTMGWYRQAPGKERELVAAITWSGGSTYYADSVKGRFTISRDNAKNTVYLQMNSLKPEDTAVYYCNADQDYQGARPSGMDYWGQGTQVTVSS | low polyreactivity |
| QVQLVESGGGLVQAGGSLRLSCAASGSTFYVNAMGCYKQAPGKEWELVAAIDGCDTYYADSVKGRFTISRDNAKKTVNLQMNSLKPDDTEVYYCAAESLPEISVGLGYWGQGTQVTVSS | low polyreactivity |
| QVQLVESGGGLVQAGGSLRLSCAASGSTFYVNAMGWNRQAPGKEREFVAAISWSGGSTYYADSVKGRFTISRDNAKNTVYLQMNSLKPEDTAVYYCAADRVRKDGVLFDYWGQGTQVTVSS | high polyreactivity |
| QVQLVESGGGLVQAGGSLRLSCAASGSTFYVNAMGWYRQAPGKERELVAAIRSSAGNTTYADSVKGRFTISRDNAKNTVYLQMNSLKPEDTAVYYCAAETFYDYGGYDYWGQGTQVTVSS | low polyreactivity |
| QVQLVESGGGLVQAGGSLRLSCAASGSTFYVNTMGWYRQAPGKERELVAVISRTGTSTYYADSVKGRFTISRDNAKNTVYFQMNCLKPEDTAVYYCAKRPLPGRPNRSILQYYYWGQVTQVTVSS | high polyreactivity |

| Sequence | polyreactivity (PSR sort gate) |
| --- | --- |
| QVQLVESGGGLVQAGGSLRLSCAASGSTFYVYAMGWYRQAPGKERELGAAIDSGDSTNYADSVKGRVTISRDNAKNTVYLQMNSLKPEDTAVYYCAVGYWDSRYRYDWPNSDYWGQGTQVTVSS | low polyreactivity |
| QVQLVESGGGLVQAGGSLRLSCAASGSTFYVYAMGWYRQAPGKERELVAAIDGSTGSTYYADSVKGRFTISRDNAKNTVYLQMNSLKPEDTAVYYCNAESIPPYSITKFDYWGQGTQGTVSS | low polyreactivity |
| QVQLVESGGGLVQAGGSLRLSCAASGSTFYVYAMGWYRQAPGKERELVAAITRGGSTYYADSVKGRFTISRDNAKNTVYLQMNSLKPEDTAVYYCAKYLSGAADLVPEYDYWGQGTQVTVSS | low polyreactivity |
| QVQLVESGGGLVQAGGSLRLSCAASGSTFYVYAMGWYRQAPGNERELVAAITSGGSTNYADSVKGRFTISRDNAKNTVYLQMNSLKPEDTAVYYCAAQGRVWDSYGYEYVQEVTRDYWGQGTQVTVSS | low polyreactivity |
| QVQLVESGGGLVQAGGSLRLSCAASGSTFYWNAMGWYRQAPGKERELVAAIRRSSDRTYYADSVKGRFTISRDNAKNTVYLQMNSLKPEDTAVYYCAADAYYTYRLDYWGQGTQVTVSS | high polyreactivity |
| QVQLVESGGGLVQAGGSLRLSCAASGSTFYWYAMGGYRQAPGKERELVAAISGSGGRTYYADSVKGRFTISRDNAKNTVYLQMYSLKPEDTAGYYCAADTKFYNYYYWGQGTQVTVSS | high polyreactivity |
| QVQLVESGGGLVQAGGSLRLSCAASGSTFYWYAMGWYIQAPGKERELGAAIRWSGDRTYYADSVKGLFTISRDNAKNTVYLQMNSLKPEDTAVYYCAAGKGRPVGGRAYYYWGQGTQVTVSS | high polyreactivity |
| QVQLVESGGGLVQAGGSLRLSCAASGSTFYWYAMGWYRQAPGKERELVAAISRSSGSTYYADSVKGRFTISRDNAKNSVYLQMNSLKPEDTAVYYCAADYYLRSFVWTAYDSWGQGTQVTVSS | high polyreactivity |
| QVQLVESGGGLVQAGGSLRLSCAASGSTFYWYAMGWYRQAPGKERELVAAITYSSGRTYYADSVKGRFTISRDNAKNTVYLQMNSLKPEDTAVYYCGWSALNGYDYWGQGTQVTVSS | high polyreactivity |
| QVQLVESGGGLVQAGGSLRLSCAASGSTFYWYAMGWYRQAPGKERELVASISWSGGRTYYADSVKGRFTISRDTAKNTVYLQMNSLKPEDTAVYYCAARRKGRYYYWGQGTQVTVSS | high polyreactivity |
| QVQLVESGGGLVQAGGSLRLSCAASGSTFYWYAMGWYRQAPGKERELVASITRSGVRTYYADSVKGRFTISRDNAKNTVYLQMNSLKPEDTAVYYCAAERYYFPRSYRYGYWGQGTQVTVSS | low polyreactivity |
| QVQLVESGGGLVQAGGSLRLSCAASGSTFYYNAMGWYRQAHGKERELVARISRSGGSTYADSVKGRFTISRDNAKNTVYLQMNSLKPEDTAVYYCNADAYGTPEFTSYAVRYDYWGQGTQVTVSS | low polyreactivity |
| QVQLVESGGGLVQAGGSLRLSCAASGSTFYYNAMGWYRQAPGKERELFAAITFTGGSTYADSVKGRFTISRDNAKNTVYLQMNSLKPEDTAVFYCAATIQGHDYLGSGYDYWGQGTQVTVSS | low polyreactivity |
| QVQLVESGGGLVQAGGSLRLSCAASGSTFYYNAMGWYRQAPGKERELVAAISRSGGRTYYADSVKGRFTISRDNAKNTVYLQMNSLKPEDTAVYYCAADAPGHEYYYWGQGTQVTVSS | high polyreactivity |
| QVQLVESGGGLVQAGGSLRLSCAASGSTFYYNAMGWYRQAPGKERELVAAITFTGGSTYADSVKGRFSISRDNAKNTVYLQMNSLKPEDTAVYYCAATIQGHDYLGTGYDYWGQGTQVTVSS | low polyreactivity |
| QVQLVESGGGLVQAGGSLRLSCAASGSTFYYNAMGWYRQAPGKERELVAAITFTGGSTYADSVKGRFTISRDNAKNTVYLQMNSLKPEDTAVFYCAATIQGHDYLGTGYDYWGQGTQVTVSS | low polyreactivity |
| QVQLVESGGGLVQAGGSLRLSCAASGSTFYYNAMGWYRQAPGKERELVAGITSSGGSTYYADSVKGRFTISRDNAKNTVYLQMNSLKPEDTAVYYCAASYKRSRRGYYWGQGTQVTVSS | high polyreactivity |
| QVQLVESGGGLVQAGGSLRLSCAASGSTFYYNAMGWYRQAPGKERELVARISRSGGSTYADSVKGRVTISRDNAKNTVYLQMNSLKPEDTAVYYCNADAYGTPEFTSYAVRYDYWGQGTQVTVSS | low polyreactivity |
| QVQLVESGGGLVQAGGSLRLSCAASGSTFYYVNAMGWYRQAPGKEREFVAAISSSSGSTYYADSVKGRFTISRDNAKNTVYLQMNSLKPEDTAVYYCAKVPRYYKSYYWGQGTQVTVSS | high polyreactivity |
| QVQLVESGGGLVQAGGSLRLSCAASGSTFYYYALGWYRQAPGKERELVASITRGGGSTYYADSVKGRFTISRDNAKNTVYLQMNSLKPEDTAVYYCAARGRFRKYDYWGQGTQVTVSS | high polyreactivity |
